Reference: doi:10.1101/2020.02.07.938530
Where two headings read alike, the source gives them in different places.

Legend:
[1] = target: 5FLAG-Scc1 (yeast (budding yeast, Saccharomyces cerevisiae)) (UniProt Q12158); experiment: co-IP
[2] = target: 5FLAG-Scc1 (yeast (budding yeast, Saccharomyces cerevisiae)) (UniProt Q12158); experiment: co-IP; remark: listed apart in the source

Chain of UniProt Q12158 (Q12158 whole entry): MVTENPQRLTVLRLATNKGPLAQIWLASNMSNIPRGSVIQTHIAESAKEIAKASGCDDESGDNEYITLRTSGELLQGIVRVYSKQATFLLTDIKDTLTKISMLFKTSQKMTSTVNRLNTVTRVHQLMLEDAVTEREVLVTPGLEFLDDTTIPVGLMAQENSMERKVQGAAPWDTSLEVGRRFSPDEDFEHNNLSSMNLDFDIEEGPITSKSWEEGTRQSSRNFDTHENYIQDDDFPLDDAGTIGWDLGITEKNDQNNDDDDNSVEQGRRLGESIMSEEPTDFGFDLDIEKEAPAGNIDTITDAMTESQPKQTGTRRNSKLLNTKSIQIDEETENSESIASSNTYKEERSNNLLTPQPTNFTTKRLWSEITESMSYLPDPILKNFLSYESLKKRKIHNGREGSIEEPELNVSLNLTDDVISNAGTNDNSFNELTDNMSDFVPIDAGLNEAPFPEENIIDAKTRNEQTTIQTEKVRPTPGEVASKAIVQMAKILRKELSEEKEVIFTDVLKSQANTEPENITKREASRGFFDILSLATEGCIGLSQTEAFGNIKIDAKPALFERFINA

- percentage of cohesin dimers [1]: 20%
- percentage of cohesin dimers [2]: 40%
Substance: GFP-Scc1 (from UniProt Q12158 1-566) (natural protein)
